Source: PMC2927863
Residue numbers refer to the chain shown, from its start.

B1: NBRE 26-mer (dsDNA)
DNA 1: GAGTTTTAAAAGGTCATGCTCAATTT
DNA 2: AAATTGAGCATGACCTTTTAAAACTC
B2: mutant NBRE 26-mer (dsDNA)
DNA 1: GAGTTTTACCAGGTCATGCTCAATTT
DNA 2: AAATTGAGCATGACCTGGTAAAACTC

Assays:
GST-NHR-6 (DBD+LBD) [1] = molecular target: T1, GST-NHR-6 (DBD+LBD) (Caenorhabditis elegans, UniProt P41829 260-619); assay: EMSA
T1 sequence: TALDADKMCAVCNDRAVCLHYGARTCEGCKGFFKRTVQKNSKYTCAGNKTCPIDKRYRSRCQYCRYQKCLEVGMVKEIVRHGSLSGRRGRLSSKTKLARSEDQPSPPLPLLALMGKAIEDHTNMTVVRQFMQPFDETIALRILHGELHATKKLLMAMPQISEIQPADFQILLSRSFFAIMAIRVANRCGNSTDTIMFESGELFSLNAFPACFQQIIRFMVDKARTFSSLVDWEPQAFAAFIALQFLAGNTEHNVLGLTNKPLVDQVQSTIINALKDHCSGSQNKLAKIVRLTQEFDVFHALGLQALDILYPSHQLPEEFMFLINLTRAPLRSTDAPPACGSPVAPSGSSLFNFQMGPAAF

GST-NHR-6 (C288S) = molecular target: T2, GST-NHR-6 (C288S) (Caenorhabditis elegans, UniProt P41829 260-619, C288S); assay: EMSA
T2 sequence: T1 sequence with C29S

GST-NHR-6 (DBD+LBD) [2] = molecular target: T1, GST-NHR-6 (DBD+LBD); assay: competition

Row | Binder | binding result (GST-NHR-6 (DBD+LBD) [1]) | binding result (GST-NHR-6 (C288S)) | binding result (GST-NHR-6 (DBD+LBD) [2])
1 | B1 | binds | no binding | 
2 | B2 |  |  | no binding
